Source: patent publication US20250270167A1

Molecular target: GHR

EC50 (chemiluminescence value, ONE-Glo, HEK293-GHR cells) | Relative activity (%) | Substance
0.0126 µg/mL |  | Jintropin (commercially available rhGH drug, Changchun GeneScience Pharmaceutical Co., Ltd.) (from UniProt P01241) (ligand)
0.0686 µg/mL | 18% | Polyethylene Glycol Recombinant Human Somatropin Injection (commercially available PEG-rhGH drug, Changchun GeneScience Pharmaceutical Co., Ltd.) (from UniProt P01241) (ligand)
0.012 µg/mL |  | rhGH standard product of National Institutes for Food and Drug Control (from UniProt P01241) (ligand)
